Article doi:10.1101/2023.06.26.546492

Target: His-SUMO-tagged full-length SARS-CoV-2 nsp14 (SARS-CoV-2) (UniProt P0DTD1)
Assay: MST

short SARS-CoV-2 nsp10 construct (from UniProt P0DTD1 4264-4385) (domain or fragment)
Kd: 13.9 µM
